These results are taken from the supplement of paper PMC9170038.

For this series, the system named is MS2 coat protein. Briefly: apparent KD of MS2 coat protein; designed switch direction (-1 OFF switch, 1 ON switch): 1; higher = weaker reporter binding. In a few lines: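 Three titration conditions were used: no input, 200 uM small-molecule ligand, and an oligonucleotide input. In each, SNAP-549-labelled MS2 coat protein was raised from 0.7 or 1.5 nM, doubling, to 3 µM over designed RNA switches transcribed on Illumina chips by stalled E. coli RNA polymerase. Curve fits of normalised cluster fluorescence gave values whose per-design median over clusters is the apparent KD.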

Setting [1] is: Eterna round: R95, input ligand: FMN 200 uM.
Setting [2] is: Eterna round: R95, input ligand: microRNA oligo, concentration not stated.
Where [3] appears, read: Eterna round: R95, input ligand: none.
[4] abbreviates: input ligand: microRNA oligo, concentration not stated.

For the sequence “UGCUAUUGUAUAUUGGUGCAAGCUUUUUGACAUGAGGAUCACCCAUGUACUCGUCUUUAGCGCAGUCCGUAGACUGC (puzzle: Sensor for hsa-mir-208a)”, the “apparent KD of MS2 coat protein” value under setting [1] stood at 52.4 nM, the “apparent KD of MS2 coat protein” value under setting [2] amounted to 13.5 nM and the “apparent KD of MS2 coat protein” value under setting [3] came to 56.6 nM.
As to “UGCUGUGUGGUAGGAUAUGUAGGAUAUGUACAUGAGGAUCACCCAUGUCAGUUAAUGACAGAAGGAUAGAAGGACCAGAGGGCU [pwkr ssNG2 2FMN 1F5s.3] (Eterna round: R96, puzzle: Same State NG 2)”, the “apparent KD of MS2 coat protein” value reads like this: (input ligand: FMN 200 uM) 254 nM; under setting [4], 205 nM; (input ligand: none) 249 nM.
The matching figures for “UGGAGAAGUCAAGGAUAUGCUACCGUUUCGGUAGCAGAAGGUGAUCACAUGAGGAUCACCCAUGUAUGCAUGCGUGAGCGUGCU [JL SSNG1 3.55] (Eterna round: R96, puzzle: Same State NG 1)”: 337 nM, 15.2 nM and 125 nM.
“UGGAUCUAGGCUUGCCUGGGUCCAUGUUGACAUGAGGAUCACCCAUGUGUUUUUUUUUUGCUUUUUGUUUGUCAACA [JL A Humble Attempt mod 3] (puzzle: Sensor for hsa-mir-208a)”: the “apparent KD of MS2 coat protein” value under setting [1] was found to be 19.1 nM, the “apparent KD of MS2 coat protein” value under setting [2] was 12.3 nM and the “apparent KD of MS2 coat protein” value under setting [3] was found to be 21.7 nM.
Turning to “UGGCUCAGACGAGGAUAUAUGCGAUCACAUGAGGAUCACCCAUGUCUCGAGCUUCGGCUCGAGGCAUAGAAGGCGUCUGAGCCU [SSNG2/4-A3] (Eterna round: R96, puzzle: Same State NG 2)”, the “apparent KD of MS2 coat protein” value came out at 13 nM (input ligand: FMN 200 uM), 25.9 nM under setting [4] and 27.7 nM (input ligand: none).
The matching figures for “UGGCUCAGACGAGGAUAUAUGUAAUAACAUGAGGAUCACCCAUGUGUCGAGCUUCGGCUCGACACAUAGAAGGCGUCUGAGCCA [SSNG2/2-A2] (Eterna round: R96, puzzle: Same State NG 2)”: 14.7 nM, 17.9 nM and 28.2 nM.
The matching figures for “UGGCUCAGACGAGGAUAUGAUCAUGGCGCUUCGGCGCAUACAUGAGGAUCACCCAUGUAAAGUGAUCAGAAGGUGUCUGAGCCA [SSNG2/7-B2] (Eterna round: R96, puzzle: Same State NG 2)”: 13 nM, 11.6 nM and 14.5 nM.
The matching figures for “UGGCUCAGACUAGGAUAUAUGCGAUCACAUGAGGAUCACCCAUGUCUCGAGCUUCGGCUCGAGGCAUAGAAGGAGUCUGAGCCU [SSNG2/4-D3] (Eterna round: R96, puzzle: Same State NG 2)”: 14.8 nM, 35.5 nM and 46.7 nM.
“UGGUUGGAGAGAGAGGAUAUCCAAUUUUCAACAUGAGGAUCACCCAUGUAGAACGUAGGUAAUUGGGAGAAGGCUCAAGAGACAU [salish99_ss2_r3_100] (puzzle: Same State 2)”: the “apparent KD of MS2 coat protein” value was determined as 26.9 nM under setting [1], 14.5 nM under setting [2] and 23.5 nM under setting [3].
With “UGUACCUUCACAGGAUAUCAUGCGAAAAUUGCGUGAGAAGGGUGAAUACGGUGUUAAUAAAAGCACAUGAGGAUCACCCAUGUA [SameState NG1 #56] (Eterna round: R96, puzzle: Same State NG 1)”, the “apparent KD of MS2 coat protein” value was 303 nM (input ligand: FMN 200 uM), 246 nM under setting [4] and 471 nM (input ligand: none).
The matching figures for “UGUACUUUCAUAGGAUAUCAUGCGAAAAUUGCGUGAGAAGGGUGAAUACUGUCUUUCUAAGAGUACAUGAGGAUCACCCAUGUA [SameState NG1 #63] (Eterna round: R96, puzzle: Same State NG 1)”: 77.3 nM, 80.2 nM and 67.5 nM.
“UGUUAACAUGAGGAUCACCCAUGUCAAAUGAAUCGAGGAUAUGGAAAGUAAUAAGAUGAACUAGAAGGUGAAGUUG [Altered State 1-19 - Jieux - Same State 1] (puzzle: Same State 1)”: the “apparent KD of MS2 coat protein” value is 37.1 nM under setting [1], 55.7 nM under setting [2] and 57.3 nM under setting [3].
With “UGUUAUUAGACAGGAUAUUGAAUGUUAAGUAUUAACAUGAGGAUCACCCAUGUAUUUGAUUGGUACAAGAAGGGUCAUGUUUGU [JR_SSNG2_Sub015] (Eterna round: R96, puzzle: Same State NG 2)”, under setting [4], the “apparent KD of MS2 coat protein” value is 303 nM.
On the same count and under the same terms, the result for “UGUUGUAUUACAGGAUAUCUAGUAUUUUUAUUCAGAGAAGGGUAUUCACAUGAGGAUCACCCAUGUAUAUACGAGGAAGUUGUG [JMF's solution 56] (Eterna round: R96, puzzle: Same State NG 1)” reads 34.1 nM.
“UGUUGUAUUACAGGAUAUCUAUGAUUUUUACUUAGAGAAGGGUAUUCACAUGAGGAUCACCCAUGUAUAUACGAGGAAGUUGUG [JMF's solution 67] (Eterna round: R96, puzzle: Same State NG 1)”: the “apparent KD of MS2 coat protein” value (input ligand: FMN 200 uM) was 47.2 nM, the “apparent KD of MS2 coat protein” value under setting [4] was 35.1 nM and the “apparent KD of MS2 coat protein” value (input ligand: none) is 44.2 nM.
For “UGUUGUAUUACAGGAUAUCUAUUAGUUUUGUUUAGAGAAGGGUAUUCACAUGAGGAUCACCCAUGUAUAUACGAGGAAGUUGUG [JMF's solution 97] (Eterna round: R96, puzzle: Same State NG 1)”, the “apparent KD of MS2 coat protein” value under setting [4] is 40.8 nM.
Same read-out and setting: the result for “UGUUGUAUUACAGGAUAUCUAUUAUUUUUAUUUAGAGAAGGGUAUUCACAUGAGGAUCACCCAUGUAUAUACGAGGAAGAUGUG [JMF's solution 5] (Eterna round: R96, puzzle: Same State NG 1)” reads 60.4 nM.
In the case of “UGUUGUAUUACAGGAUAUCUAUUGUUUUUACUUAGAGAAGGGUAUUCACAUGAGGAUCACCCAUGUAUAUACGAGGAAGUUGUG [JMF's solution 83] (Eterna round: R96, puzzle: Same State NG 1)”, the “apparent KD of MS2 coat protein” value is, setting by setting: (input ligand: FMN 200 uM) 39.2 nM; under setting [4], 31 nM; (input ligand: none) 41.8 nM.
“UGUUGUUAACUAGGAUAUGGUCACAUGAGGAUCACCCAUGUAAUGUCGAUGCUAUGUGGAUUUGAUCAGAAGGAGUGGUUAACA [SameState NG2 #99] (Eterna round: R96, puzzle: Same State NG 2)”: the “apparent KD of MS2 coat protein” value (input ligand: FMN 200 uM) came out at 66.4 nM, the “apparent KD of MS2 coat protein” value under setting [4] stood at 58.8 nM and the “apparent KD of MS2 coat protein” value (input ligand: none) came out at 58.4 nM.
The matching figures for “UUAAUAAAUCAAGGAUAUCACGUCGAAUAGACGUGAGAAGGUGAUCAUAACAUGAGGAUCACCCAUGUAUUACAUGAAUAUUAA [SSNG1/1-B1] (Eterna round: R96, puzzle: Same State NG 1)”: 522 nM, 40 nM and 512 nM.
The matching figures for “UUAAUAAAUCAAGGAUAUCACGUCGAUUAGACGUGAGAAGGUGAUCAUAACAUGAGGAUCACCCAUGUAUUACAUGAAUAUUAA [SSNG1/1-B2] (Eterna round: R96, puzzle: Same State NG 1)”: 1810 nM, 721 nM and 659 nM.
For “UUAAUAAUGUAAGGAUAUACAUGAGGAUUUCUCGUAGAAGGUACAUUACAUGAGGAUCACCCAUGUGGGUGUCAGAAGACGCCA [Mat - Same State NG 1 - JL mod - D13] (Eterna round: R96, puzzle: Same State NG 1)”, the “apparent KD of MS2 coat protein” value reads like this: (input ligand: FMN 200 uM) 143 nM; under setting [4], 953 nM; (input ligand: none) 275 nM.
For “UUAAUGAUGUUAGGAUAUACAUGAGGAAUCCUCGUAGAAGGAACAUGACAUGAGGAUCACCCAUGUAGCGCUCCGUAGAGCGCA [JL SSNG1 1.18] (Eterna round: R96, puzzle: Same State NG 1)”, the “apparent KD of MS2 coat protein” value was 2460 nM (input ligand: FMN 200 uM), 18.5 nM under setting [4] and 60.3 nM (input ligand: none).
The matching figures for “UUACUCAUGUAAGGAUAUGCAGCCGUUUCGGCUGCAGAAGGUACUAUAAUACAUGAGGAUCACCCAUGUCUAUAAAAUAAAGAC [Mat - Same State NG 1 - JL mod - D81] (Eterna round: R96, puzzle: Same State NG 1)”: 69.5 nM, 24 nM and 32.5 nM.
“UUCCCAGCGGGAGGAUAUGGUGCCUUAUUGGUGCUAGAAGGUCCAACAUGAGGAUCACCCAUGUGGGAGUGGUCUAAUGACCUC [SS NG10LRO07] (Eterna round: R96, puzzle: Same State NG 1)”: the “apparent KD of MS2 coat protein” value under setting [4] worked out at 169 nM.
As to “UUCUCACAUGAGGAUCACCCAUGUGAGCCUCUGUGAGGAUAUCCGACAUAAUUAAUUGAAGGAGAAGGUACACGAG [Leer] (puzzle: Same State 1)”, the “apparent KD of MS2 coat protein” value was 130 nM under setting [1], 4.78 nM under setting [2] and 24.9 nM under setting [3].
Consider “UUGAAGAAUUAAGGAUAUUGAGUACAUAUGUUUAACAUGAGGAUCACCCAUGUGGGUUGCGGUAUCGAGAAGGUAAAUUACAAG [JL SSNG2 1.44] (Eterna round: R96, puzzle: Same State NG 2)”, for which the “apparent KD of MS2 coat protein” value reads like this: (input ligand: FMN 200 uM) 105 nM; under setting [4], 91.8 nM; (input ligand: none) 138 nM.
The matching figures for “UUGAGGAAUUAAGGAUAUUGAGUACAUAUGUUUAACAUGAGGAUCACCCAUGUGGGUUGCGGUAUCGAGAAGGUAAAUUACUAC [salish99_SSNG2_r04_801] (Eterna round: R96, puzzle: Same State NG 2)”: 113 nM, 73.2 nM and 120 nM.
